B1: mAb 416 (antibody, V domains shown)
VH: QVTLKESGPTLVKPTQTLTLTCSFSGFSLSTSGVGVGWVRQPPGKALEWLAFIFWDDDKYYSPSLESRLTITKDTSKNQVVLTMTNMDPVDTATYYCARSYDDYLYYALDYWGQGTLVT
VL: DIQMTQSPSSLSAFVGDGVTMTCWASQSINDYLNWYHQRPGEAPELLVFAASNLQIGVPSRFRGSGSETYFTLTINSLQPEDSGTYFCQNGHSFPLTFGGGTKLEI
B2: mAb 1338 (antibody, V domains shown)
VH: B1 VH with F54W, Y101A, A108S, L109F, Y111T
VL: B1 VL with N90S
B3: mAb 1337 (antibody, V domains shown)
VH: B1 VH with F54W, Y101A, A108S, L109F, Y111T
VL: B1 VL with N90H
B4: mAb 1340 (antibody, V domains shown)
VH: B1 VH with F54W, Y101A, A108S, L109F, Y111T
VL: B1 VL with H92W
B5: mAb 1259 (antibody, V domains shown)
VH: B1 VH with F54W, Y101A, A108S, L109F, Y111T
VL: B1 VL
B6: mAb 246 (antibody, V domains shown)
VH: QVTLKESGPTLVKPTQTLTLTCTFSGFSLSTSGVAVGWIRQPPGKALEWLALIFWDDDKHYSPSLKSRLTITKDTSKNQVVLTMTNMDPVDTATYYCARSYDDYLYYALDYWGQGTLVTVSS
VL: EIVLTQSPGTLSLSPGERATLSCRASQTIDSSYLAWYQQKPGQAPRLLVYGASSRATGIPDRFSDSGSGTDFTLTISRLEPEDFAVYYCQQYAKSPITFGQGTKLE
B7: mAb 297 (antibody, V domains shown)
VH: B6 VH
VL: DIQMTQSPSSLSASVGDSVTITCRASQTISDFLNWYQQKPGKAPKLLIHASSNLQSGVPSRFSGSGSGTDFTLTISDLQPEDFATYSCQQTYSTLGTFGQGTRLE
B8: mAb 248 (antibody, V domains shown)
VH: B6 VH
VL: DIVMTQSPSSLSASVGDRVTITCRASQTISSYLNWYQQKPGKPPKLLIYAASSLESGVPSRFSGSGSGTEFTLTISSLQPEDLATYYCQQANSFPLTFGGGTKLE
B9: mAb 239 (antibody, V domains shown)
VH: QVTLKESGPTLVKPTQTLTLTCIFSGFSFKTSGVSVGWIRQPPGKALEWLALIYWDDDKRYSPSLKNRLTITRDTSKNQVVLTMTNMDPVDTATYYCARSYDDYLYYALDYWGQGTLVT
VL: DVVMTQSPSSVSASVGDRVTITCRASQDIDNFLAWYQQKPGKAPNLLIYKVSSLRSGVPSRFSGSRSGTDFTLTITSLQPEDFATYFCQQTRRFPLTFGPGTKLE
B10: mAb 247 (antibody, V domains shown)
VH: B6 VH
VL: B9 VL
B11: mAb 237 (antibody, V domains shown)
VH: B9 VH with I23T, F29L, K30R, I39F, I53V, K59R, S62N
VL: B9 VL
B12: mAb 285 (antibody, V domains shown)
VH: QVTLKESGPALVKPTQTLTLTCTFSGFSLSTSGMCVSWIRQPPGKALEWLTLIYWDDDKRYSPSLETRLTITKDTSKNQVVLTMTNMDPVDTATYYCARSYDDYLYYALDYWGQGTLVT
VL: B9 VL
B13: mAb 241 (antibody, V domains shown)
VH: B1 VH
VL: B9 VL
B14: mAb 197 (antibody, V domains shown)
VH: B12 VH with S30T, T51A, S62N, E66R, T67S, Y101H
VL: DVVMTQSPSSVSASVGDRVTITCRASQVIDSWLHWYQREPGKAPKILIYAATTLQRGVPSRFSGSGFGTEFTLTISGLQPEDFATYFCQQGYSFPITFGQGTRLEIK
B15: mAb 123 (antibody, V domains shown)
VH: B12 VH with S30T, T51A, S62N, E66R, T67S, Y101H
VL: DIVMTQSPATLSVTPGDRVSLSCRASQSISDYLHWYQQKSHESPRLLIKSVSQSISGIPSRFSGSGSGSDFTLSINSVEPEDVGVYYCQNGHSFPLTFGAGTKLELK
B16: mAb 182 (antibody, V domains shown)
VH: B12 VH with S30T, T51A, S62N, E66R, T67S
VL: DIQMTQSPSSLSASVGDRVTITCRASQSISTYLNWYQQKLGKAPKLLIYAASSLQSGVPSRFSGSGSGTDFTLTISSLQPEDLATYYCQQSYRPLTFGGGTKLEIK
B17: mAb 265 (antibody, V domains shown)
VH: B12 VH with S30T, T51A, S62N, E66R, T67S
VL: DIQMTQSPSTLSASVGDRVTITCRASQSMSDYLNWYQQKPGKAPKLLIYSASGLQSGVPSRFSGSGSGTDFTLTIINLQPEDVAAYYCQQSFSFPLTFGPGTKLEIK
B18: mAb 286 (antibody, V domains shown)
VH: B12 VH
VL: B8 VL
B19: mAb 184 (antibody, V domains shown)
VH: B12 VH with S30T, T51A, S62N, E66R, T67S
VL: DIQMTQSPSSLSASVGDSVTVTCRASQKMRTYLHWYQQKPGKAPKLLIYDVSFLQNGVPSRFSGRASGTEFTLTISDLQPEDFATYYCQQSYDTPLTFGQGTKLEIK
B20: mAb 183 (antibody, V domains shown)
VH: B12 VH with S30T, T51A, S62N, E66R, T67S
VL: DIQMTQSPSSLSASVGDSVTITCRASQSISIYLNWYQQKPGKAPDLLIYATSTLQSGVPSRFSGRGSGTHFTLTIDSLQPEDFATYYCQQTYRNLFTFGQGTKLE
B21: mAb 242 (antibody, V domains shown)
VH: B1 VH
VL: B8 VL
B22: mAb 179 (antibody, V domains shown)
VH: B12 VH with S30T, T51A, S62N, E66R, T67S
VL: B15 VL
B23: mAb 181 (antibody, V domains shown)
VH: B12 VH with S30T, T51A, S62N, E66R, T67S
VL: B8 VL

Positions count from the first letter of the chain named.

IC50 and Kd data for 23 molecules are collected here from US20080075726A1 (VACCINEX, published 2008).

A word on the IC50: it is the concentration needed to halve the response being measured. Broadly, the Kd is the concentration at which binding is half-saturated.

For one assay, the target named is T1, recombinant human IL-6 (human, UniProt P05231 30-212, limits assumed).
T1 construct: also called rhIL6; human recombinant IL-6
The experiment in a line: competition ELISA, rhIL-6 in solution against captured IL-6. As for the experimental part:
(§1) Briefly, plates were coated with 2 μg/ml of mBE4 capture antibody in coating buffer, 100 μl per well. The plates were incubated overnight. Next, the plates were washed 3 times and tapped dry. The plates were then blocked with 200 μl per well of Assay Diluent or 10% FBS in PBS and incubated for 2 hours. […] The reaction was left at RT for 3-4 hours. […] Next, the plates were washed 3 times and tapped dry. […] The plates were incubated for 1-2 hours. The plates were washed 3 times and tapped dry. […] The plates were incubated at RT for 2 hours. (Therefore, any unbound mAb at this point will be measured by ELISA). Plates were then washed 5 times and tapped dry. 100 μl of detection Ab goat anti-human IgG F(ab)′2-HRP (Jackson lab) was added at 1:20,000 dilutions or 1:40,000 dilutions (depending on lot) and the plates were incubated for 1-2 hours. The plates were washed 7 times and tapped dry. Next, the Developer Substrate (equal parts of each reagent in the kit) was pre-mixed and allowed to warm to room temperature before use. Then 100 μl of Developer was added to each well. The plates were allowed to develop for 15 minutes un-sealed in a drawer in the dark. Finally, developing was stopped by adding 100 μl of 2N H₂SO₄ to each well and plates were read as Endpoint at 450 nm-[…].
Take B1: the IC50 was 0.6 nM. B2: the IC50 turned out to be 0.031 nM. With B3, the IC50 was 0.047 nM. Still for that read-out and setting: the value for B4 was 0.028 nM; that for B5 was 0.028 nM; that for B6 was 5.5 nM. As for B7, the IC50 came out at 11.5 nM.

As for B8, the 50% inhibitory concentration (IC50) was determined as 2 nM. As to B9, the 50% inhibitory concentration (IC50) came to 9.6 nM. The same measure, in the same setting: the value for B10 was 4 nM. Consider B11, for which the IC50 came to 6.5 nM. As for B12, the concentration for half-maximal inhibition (IC50) worked out at 2.5 nM. Consider B13, for which the 50% inhibitory concentration (IC50) worked out at 6.5 nM. With B14, the concentration for half-maximal inhibition (IC50) was found to be 3.7 nM.

On to B15, for which the concentration for half-maximal inhibition (IC50) stood at 1.1 nM. On the same count and under the same terms, the value for B16 was 6.3 nM; that for B17 was 6.2 nM. The same measure, in the same setting: in the case of B18 it was 2.5 nM; in that of B19, 2.4 nM; in that of B20, 1.75 nM. Still for that read-out and setting: in the case of B21 it was 2.2 nM; in that of B22, 0.85 to 4.2 nM. On to B23, for which the half-inhibitory concentration (IC50) stood at 12.9 nM.

The next assay addresses T1, recombinant human IL-6. As to the kind of experiment: Biacore 2000, mAb captured on anti-human IgG CM5 chip, human IL-6 40-1.25 nM injected. As for the experimental part:
(§2) IC50 ELISA was performed as described above. Affinity analysis by Biacore was performed according to manufacturer protocols using HBS-EP buffer (Biacore AB).
(In general: In SPR one partner is held on a chip, and binding of the other changes the refractive index at the surface.)
Regarding B1, the Kd worked out at 0.3 nM. Turning to B2, the dissociation constant Kd is 0.072 nM. The same measure, in the same setting: the value for B5 was 0.093 nM.

In another assay the target is T1, recombinant human IL-6. As to the kind of experiment: competition ELISA, rhIL-6 in solution against captured IL-6 (Affinity (nM) by IC50 ELISA). As for the experimental part: as §1, §2
In general terms: An ELISA detects its analyte on a solid surface through an enzyme-linked reagent.
As for B1, the 50% inhibitory concentration (IC50) came to 0.056 nM. Regarding B2, the half-maximal inhibitory concentration (IC50) is 0.031 nM.

Regarding B3, the IC50 amounted to 0.047 nM.

Regarding B4, the half-inhibitory concentration (IC50) was found to be 0.028 nM. B5: the IC50 is 0.028 nM.
